Experimental data as given in US20110311522A1.

Assays:
[1] = molecular target: phage peptides (screening product screened with 8G9 from twelve-peptide library)
[2] = molecular target: 14 strains of non-H5 viruses (H1~H13, Chicken NDV); assay: cell-based or functional assay
[3] = molecular target: H5 virus strain (fifteen strains of H5N1 viruses); assay: cell-based or functional assay
[4] = molecular target: hemagglutinin (HA) of H5N1 virus strain FJ1.5 (H5N1 avian influenza virus, strain FJ1.5); assay: cell-based or functional assay
[5] = molecular target: hemagglutinin (HA) of H5N1 virus strain GD1.1 (H5N1 avian influenza virus, strain GD1.1); assay: cell-based or functional assay
[6] = molecular target: hemagglutinin (HA) of H5N1 virus strain GD3.1 (H5N1 avian influenza virus, strain GD3.1); assay: cell-based or functional assay
[7] = molecular target: hemagglutinin (HA) of H5N1 virus strain GD4.1 (H5N1 avian influenza virus, strain GD4.1); assay: cell-based or functional assay
[8] = molecular target: hemagglutinin (HA) of H5N1 virus strain HN3.1 (H5N1 avian influenza virus, strain HN3.1); assay: cell-based or functional assay
[9] = molecular target: hemagglutinin (HA) of H5N1 virus strain IDN1.1 (H5N1 avian influenza virus, strain IDN1.1); assay: cell-based or functional assay
[10] = molecular target: hemagglutinin (HA) of H5N1 virus strain IDN3.1 (H5N1 avian influenza virus, strain IDN3.1); assay: cell-based or functional assay
[11] = molecular target: hemagglutinin (HA) of H5N1 virus strain IDN6.1 (H5N1 avian influenza virus, strain IDN6.1); assay: cell-based or functional assay
[12] = molecular target: hemagglutinin (HA) of H5N1 virus strain IDN8.1 (H5N1 avian influenza virus, strain IDN8.1); assay: cell-based or functional assay
[13] = molecular target: hemagglutinin (HA) of H5N1 virus strain Mixed1.1 (H5N1 avian influenza virus, strain Mixed1.1); assay: cell-based or functional assay
[14] = molecular target: hemagglutinin (HA) of H5N1 virus strain QH1.1 (H5N1 avian influenza virus, strain QH1.1); assay: cell-based or functional assay
[15] = molecular target: hemagglutinin (HA) of H5N1 virus strain VNM2-2.1 (H5N1 avian influenza virus, strain VNM2-2.1); assay: cell-based or functional assay
[16] = molecular target: hemagglutinin (HA) of H5N1 virus strain VTM1.1 (H5N1 avian influenza virus, strain VTM1.1); assay: cell-based or functional assay
[17] = molecular target: hemagglutinin (HA) of H5N1 virus strain VTM4.1 (H5N1 avian influenza virus, strain VTM4.1); assay: cell-based or functional assay
[18] = molecular target: hemagglutinin (HA) of H5N1 virus strain YN2.1 (H5N1 avian influenza virus, strain YN2.1); assay: cell-based or functional assay

B1: monoclonal antibody 8G9 (antibody, V domains shown)
VH: QVQLQQPGVELVRPGASVKLSCKASGYTFTSFWMNWVKQRPDQGLEWIGRIDPYDSETHYNQKFKDKAILTVDKSSSTAYMQLSSLTSEDSAVYYCGRGIATLMVLPDYWGQGTSVTVSS
VL: DILMTQSPSSMSVSLGDTVSITCHASQDISSNMGWLQQKPGKSLKGLIYHGTNLEDGVPSRFSGSGSGPDYSLTISSLESEDFADYYCVQYIQFPWTFGGGTKLEIKR
0: Positive number/total virus number, hemagglutination inhibition assay (of 14 virus strains positive) [2]
15: Positive number/total virus number, hemagglutination inhibition assay (of 15 virus strains positive) [3]
> 3 fold: OD value relative to that of the control antibodies [1]
12800 titer: Hamaglutinin inhibition titer [4] | Neutralization titer [4] | Hamaglutinin inhibition titer [5] | Neutralization titer [5] | Hamaglutinin inhibition titer [6] | Neutralization titer [6] | Hamaglutinin inhibition titer [7] | Neutralization titer [7] | Hamaglutinin inhibition titer [8] | Neutralization titer [8] | Hamaglutinin inhibition titer [9] | Neutralization titer [9] | Hamaglutinin inhibition titer [10] | Neutralization titer [10] | Hamaglutinin inhibition titer [11] | Neutralization titer [11] | Hamaglutinin inhibition titer [12] | Neutralization titer [12] | Hamaglutinin inhibition titer [13] | Neutralization titer [13] | Hamaglutinin inhibition titer [14] | Neutralization titer [14] | Hamaglutinin inhibition titer [15] | Neutralization titer [15] | Hamaglutinin inhibition titer [16] | Neutralization titer [16] | Hamaglutinin inhibition titer [17] | Neutralization titer [17] | Hamaglutinin inhibition titer [18] | Neutralization titer [18]
